Results on four molecules are retold here after paper PMC10968512, “Cry Toxins Use Multiple ATP-Binding Cassette Transporter Subfamily C Members as Low-Efficiency Receptors in Bombyx mori” (Biomolecules, 2024).

A word on the Kd: it is a measure of binding affinity in units of concentration. Read a low Kd as higher affinity.

The target of assay [1] is T1, Bombyx mori ABC transporter subfamily C member 1, BmABCC1-FLAG (Bombyx mori).
T1 construct: BmABCC1 (MRP1) of Bombyx mori, protein XP_012546136.1, cDNA XM_012690682.3 amplified from midgut cDNA; also called MRP1 (name in the NCBI)
T1 sequence (main, as listed by the source): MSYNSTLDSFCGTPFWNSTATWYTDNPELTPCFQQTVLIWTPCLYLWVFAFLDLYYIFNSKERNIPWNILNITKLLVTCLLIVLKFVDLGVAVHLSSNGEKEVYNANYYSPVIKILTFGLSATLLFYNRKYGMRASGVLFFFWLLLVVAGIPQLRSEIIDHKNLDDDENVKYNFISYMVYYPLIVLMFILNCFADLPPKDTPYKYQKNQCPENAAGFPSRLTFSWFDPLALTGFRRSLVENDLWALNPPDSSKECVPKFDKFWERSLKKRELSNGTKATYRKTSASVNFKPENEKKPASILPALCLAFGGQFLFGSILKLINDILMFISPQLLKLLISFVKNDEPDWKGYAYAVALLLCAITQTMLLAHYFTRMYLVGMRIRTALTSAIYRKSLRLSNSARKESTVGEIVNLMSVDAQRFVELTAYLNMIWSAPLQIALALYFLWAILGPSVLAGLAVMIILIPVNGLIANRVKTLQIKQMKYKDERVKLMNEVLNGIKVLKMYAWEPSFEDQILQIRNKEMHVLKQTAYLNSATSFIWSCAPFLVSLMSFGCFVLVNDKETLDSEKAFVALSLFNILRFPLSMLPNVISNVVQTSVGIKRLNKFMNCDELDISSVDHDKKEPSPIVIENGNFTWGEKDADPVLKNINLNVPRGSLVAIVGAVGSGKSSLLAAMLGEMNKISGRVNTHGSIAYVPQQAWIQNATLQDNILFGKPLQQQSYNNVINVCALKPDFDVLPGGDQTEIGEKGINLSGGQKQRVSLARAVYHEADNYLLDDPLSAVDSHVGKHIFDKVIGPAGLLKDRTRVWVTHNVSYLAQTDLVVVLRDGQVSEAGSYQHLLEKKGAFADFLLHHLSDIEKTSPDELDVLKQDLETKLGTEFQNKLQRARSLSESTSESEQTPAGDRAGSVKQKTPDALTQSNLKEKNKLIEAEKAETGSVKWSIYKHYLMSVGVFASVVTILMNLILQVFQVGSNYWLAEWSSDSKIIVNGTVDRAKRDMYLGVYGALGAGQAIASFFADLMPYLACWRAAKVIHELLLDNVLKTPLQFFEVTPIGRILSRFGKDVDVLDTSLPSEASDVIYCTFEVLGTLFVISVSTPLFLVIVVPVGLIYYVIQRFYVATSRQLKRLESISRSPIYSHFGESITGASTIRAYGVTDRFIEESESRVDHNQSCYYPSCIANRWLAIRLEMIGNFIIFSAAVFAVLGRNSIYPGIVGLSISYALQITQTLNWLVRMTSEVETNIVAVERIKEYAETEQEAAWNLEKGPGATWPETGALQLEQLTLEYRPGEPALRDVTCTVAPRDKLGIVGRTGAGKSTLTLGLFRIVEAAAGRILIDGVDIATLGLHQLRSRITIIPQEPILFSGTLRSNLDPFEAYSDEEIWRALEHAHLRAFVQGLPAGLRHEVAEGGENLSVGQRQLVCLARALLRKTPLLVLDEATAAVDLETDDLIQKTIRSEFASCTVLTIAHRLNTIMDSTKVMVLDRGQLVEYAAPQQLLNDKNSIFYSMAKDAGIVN
Description: SPR; BIACORE; BmABCC immobilised on a CM5 sensor chip; toxins (or BSA) in PBST (PBS with 0.005% Tween 20) at 500 and/or 1000 nM; 120 s association, 240 s dissociation; fitted with two-state reaction models (BIAevaluation ver.4.1). To be noted: both partners purified. (SPR reads the build-up and loss of mass on a sensor chip optically.)

For assay [2], the target named is T2, Bombyx mori ABC transporter subfamily C member 4, BmABCC4-FLAG (Bombyx mori).
T2 construct: BmABCC4 (MRP4) of Bombyx mori, protein XP_021205339.2, cDNA XM_021349664.2 amplified from midgut cDNA; also called MRP4 (name in the NCBI)
T2 sequence (main, as listed by the source): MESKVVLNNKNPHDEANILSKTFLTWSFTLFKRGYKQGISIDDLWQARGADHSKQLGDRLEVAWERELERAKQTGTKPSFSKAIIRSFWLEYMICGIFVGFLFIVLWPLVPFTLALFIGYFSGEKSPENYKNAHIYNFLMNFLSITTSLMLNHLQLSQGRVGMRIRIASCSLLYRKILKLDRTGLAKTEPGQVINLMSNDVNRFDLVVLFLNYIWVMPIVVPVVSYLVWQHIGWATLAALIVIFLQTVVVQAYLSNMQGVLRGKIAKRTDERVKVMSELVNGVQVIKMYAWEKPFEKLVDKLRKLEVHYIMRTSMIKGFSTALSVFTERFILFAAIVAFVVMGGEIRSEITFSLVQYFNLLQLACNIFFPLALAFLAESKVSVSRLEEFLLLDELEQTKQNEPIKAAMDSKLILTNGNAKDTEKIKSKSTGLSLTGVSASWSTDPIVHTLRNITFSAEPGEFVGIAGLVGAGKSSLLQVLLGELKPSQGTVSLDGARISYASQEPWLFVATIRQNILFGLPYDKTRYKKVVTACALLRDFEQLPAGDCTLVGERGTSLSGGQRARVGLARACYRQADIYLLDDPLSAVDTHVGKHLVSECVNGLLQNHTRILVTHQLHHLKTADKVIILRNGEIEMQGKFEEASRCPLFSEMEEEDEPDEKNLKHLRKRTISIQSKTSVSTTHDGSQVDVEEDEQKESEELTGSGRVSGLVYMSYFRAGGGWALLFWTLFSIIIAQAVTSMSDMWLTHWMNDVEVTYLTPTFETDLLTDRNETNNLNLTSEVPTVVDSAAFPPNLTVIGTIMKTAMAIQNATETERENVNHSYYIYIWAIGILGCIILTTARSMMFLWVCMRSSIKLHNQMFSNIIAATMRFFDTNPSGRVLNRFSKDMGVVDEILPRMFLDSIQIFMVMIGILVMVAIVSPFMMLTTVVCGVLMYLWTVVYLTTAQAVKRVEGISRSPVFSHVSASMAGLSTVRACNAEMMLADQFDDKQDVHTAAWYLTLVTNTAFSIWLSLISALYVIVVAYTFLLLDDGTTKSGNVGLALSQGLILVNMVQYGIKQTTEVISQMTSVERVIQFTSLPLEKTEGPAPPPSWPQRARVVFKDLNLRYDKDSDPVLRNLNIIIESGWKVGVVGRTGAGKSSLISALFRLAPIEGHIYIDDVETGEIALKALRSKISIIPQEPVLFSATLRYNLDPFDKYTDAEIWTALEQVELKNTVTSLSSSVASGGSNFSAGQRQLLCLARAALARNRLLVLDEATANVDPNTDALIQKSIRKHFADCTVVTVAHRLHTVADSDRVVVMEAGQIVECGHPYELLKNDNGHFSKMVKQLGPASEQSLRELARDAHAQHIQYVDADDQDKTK
Described as above. The following applies: both partners purified.

B1: Cry1Aa toxin (trypsin-activated) (domain or fragment)
chain: not shown
As to B1, the dissociation constant (Kd) in assay [1] turned out to be 46100 nM; in assay [2], 267 nM.

B2: Cry1Da toxin (trypsin-activated) (domain or fragment)
chain: ETGNTVADISLGLINFLYSNFVPGGGFIVGLLELIWGFIGPSQWDIFLAQIEQLISQRIEEFARNQAISRLEGLSNLYKVYVRAFSDWEKDPTNPALREEMRIQFNDMNSALITAIPLFRVQNYEVALLSVYVQAANLHLSILRDVSVFGERWGYDTATINNRYSDLTSLIHVYTNHCVDTYNQGLRRLEGRFLSDWIVYNRFRRQLTISVLDIVAFFPNYDIRTYPIQTATQLTREVYLDLPFINENLSPAASYPTFSAAESAIIRSPHLVDFLNSFTIYTDSLARYAYWGGHLVNSFRTGTTTNLIRSPLYGREGNTERPVTITASPSVPIFRTLSYITGLDNSNPVAGIEGVEFQNTISRSIYRKSGPIDSFSELPPQDASVSPAIGYSHRLCHATFLERISGPRIAGTVFSWTHRSASPTNEVSPSRITQIPWVKAHTLASGASVIKGPGFTGGDILTRNSMGELGTLRVTFTGRLPQSYYIRFRYASVANRSGTFRYSQPPSYGISFPKTMDAGEPLTSRSFAHTTLFTPITFSRAQEEFDLYIQSGVYIDRIEFIPVTAT
Regarding B2, the figures for the dissociation constant (Kd) in assay [1] and in assay [2] were 415 nM and 63.7 nM, respectively.

B3: Cry8Ca toxin (trypsin-activated) (domain or fragment)
chain: ISAQDAVGTGIDIVSTIISGLGIPVLGEVFSILGSLIGLLWPSNNENVWQIFMNRVEELIDQKILDSVRSRAIADLANSRIAVEYYQNALEDWRKNPHSTRSAALVKERFGNAEAILRTNMGSFSQTNYETPLLPTYAQAASLHLLVMRDVQIYGKEWGYPQNDIDLFYKEQVSYTARYSDHCVQWYNAGLNKLRGTGAKQWVDYNRFRREMNVMVLDLVALFPNYDARIYPLETNAELTREIFTDPVGSYVTGQSSTLISWYDMIPAALPSFSTLENLLRKPDFFTLLQEIRMYTSFRQNGTIEYYNYWGGQRLTLSYIYGSSFNKYSGVLAGAEDIIPVGQNDIYRVVWTYIGRYTNSLLGVNPVTFYFSNNTQKTYSKPKQFAGGIKTIDSGEELTYENYQSYSHRVSYITSFEIKSTGGTVLGVVPIFGWTHSSASRNNFIYATKISQIPINKASRTSGGAVWNFQEGLYNGGPVMKLSGSGSQVINLRVATDAKGASQRYRIRIRYASDRAGKFTISSRSPENPATYSASIAYTNTMSTNASLTYSTFAYAESGPINLGISGSSRTFDISITKEAGAANLYIDRIEF
For the molecule B3, the dissociation constant Kd in assay [1] was 34.8 nM; in assay [2] it was 61.7 nM.

B4: Cry9Aa toxin (trypsin-activated) (domain or fragment)
chain: YPLANNPYSSALNLNSCQNSSILNWINIIGDAAKEAVSIGTTIVSLITAPSLTGLISIVYDLIGKVLGGSSGQSISDLSICDLLSIIDLRVSQSVLNDGIADFNGSVLLYRNYLEALDSWNKNPNSASAEELRTRFRIADSEFDRILTRGSLTNGGSLARQNAQILLLPSFASAAFFHLLLLRDATRYGTNWGLYNATPFINYQSKLVELIELYTDYCVHWYNRGFNELRQRGTSATAWLEFHRYRREMTLMVLDIVASFSSLDITNYPIETDFQLSRVIYTDPIGFVHRSSLRGESWFSFVNRANFSDLENAIPNPRPSWFLNNMIISTGSLTLPVSPSTDRARVWYGSRDRISPANSQFITELISGQHTTATQTILGRNIFRVDSQACNLNDTTYGVNRAVFYHDASEGSQRSVYEGYIRTTGIDNPRVQNINTYLPGENSDIPTPEDYTHILSTTINLTGGLRQVASNRRSSLVMYGWTHKSLARNNTINPDRITQIPLTKVDTRGTGVSYVNDPGFIGGALLQRTDHGSLGVLRVQFPLHLRQQYRIRVRYASTTNIRLSVNGSFGTISQNLPSTMRLGEDLRYGSFAIREFNTSIRPTASPDQIRLTIEPSFIRQEVYVDRIEFIPVNPT
B4 had a dissociation constant (Kd) in assay [1] of 1.89 nM.
